Target: SARS-CoV-2 receptor-binding domain (amino acids 330-532), Victoria strain, biotinylated (SARS-CoV-2, Wuhan/Victoria (B), UniProt P0DTC2, biotinylated (site not stated))
Assay: SPR
Settings: both partners purified

B1: nanobody F2 (monovalent VHH, pOPINO construct) (VHH)
VHH: QVQLVESGGGLVQAGGSLRLACIASGRTFHSYVMAWFRQAPGKEREFVAAISWSSTPTYYGESVKGRFTISRDNAKNTVYLQMNRLKPEDTAVYFCAADRGESYYYTRPTEYEFWGQGTQVTVSS
  Kd: 0.04 nM

B2: nanobody C1 (monovalent VHH, pOPINO construct) (VHH)
VHH: QVQLVESGGGLVQPGGSLRLSCAASGFTNDFYSIAWFRQAPGKEREGVSWLSVSDNTPTYVDSVKDRFTISRHNANNTVYLQMNMLKPEDTAIYYCAAGRFAGRDTWPSSYDYWGQGTQVTVSS
  Kd: 0.615 nM
  T1/2: 20 min

Source: publication PMC8458290 (Nature Communications, 2021)
